{"source": "the domain aggregation screens of Martell et al. (2025)"}
{"test": "soluble fraction after stress (log2 fold change); higher = more stays soluble; pooled small domains, quantitative proteomics", "conditions": "stress: pH 4", "in_short": "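Aggregation propensity is estimated from the fold change in each domain's soluble amount after acid stress. Pooled small-domain libraries were stressed at pH 4, and higher log2 values mean more stayed soluble.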"}
{"sequence": "HMPEPAPALPAKTRVSIRRETGGIIWHEGAWTISPPIRAYDGRWYVAVTTARKGIEFVPVSSVIRS", "soluble fraction (log2)": -0.0262}
{"sequence": "HMPEPMKLSDLPPELWQRVSDLFDEVIDLPETDRIPYIRNLWGSEPLVAKELMALLVAAANVD", "soluble fraction (log2)": -1.1}
{"sequence": "HMPESFSEMQKRTGVGEFSDDALSAKYVDSIDADVMSLDEYIMKVRGISLDDLEAERALRAR", "soluble fraction (log2)": -0.884}
{"sequence": "HMPETAQLTDIQVSRSQAHTGIFSLHYYLTGTDSRGERVRLEISGDDYTRLSGSSSVTVEYYRHTGRIVRY", "soluble fraction (log2)": -0.552}
{"sequence": "HMPETYVVFSKDGYANLRRGTTINSEILDVLDNGEYVTKLDEVGEWYRVEYADFDGGYIHKSQLKNI", "soluble fraction (log2)": -1.58}
{"sequence": "HMPFDRTVQLAGARARQLQALPRYREVLRLLDEGMNPREIGQVLDPPVTRQRASALIQQAKRAQMLGLFED", "soluble fraction (log2)": -0.0649}
{"sequence": "HMPFNLKSLADRLSHVFPGLVKMRDDIGAIIVMDKIKVTEHGVTEGGGLAADRVRAVYNEFIKEY", "soluble fraction (log2)": 0.334}
{"sequence": "HMPFSLHGVNEGSRNDNAARIAGYLISKNLNLDFVRIFLHNWNRDNKPPLPQQEIDSVVDNVKKTHDRKN", "soluble fraction (log2)": -0.0731}
{"sequence": "HMPGEATVPSVIGMTKAEAKAKLQASGFELGYSEFVASDKPKGEIVEQDPGAGETAKGGTEVNVKISDGS", "soluble fraction (log2)": -0.187}
{"sequence": "HMPGLDTTILSDILSLKKELPSRSAAKILIMLILAKRIEEGSLNLRTINRILNQYGYTRESLL", "soluble fraction (log2)": 0.327}
{"sequence": "HMPGLQSVTPAELKIGMYVILPLAWDEHPFLKNHFLIQSEAQINKIRELGTKGIQIDLSKSHP", "soluble fraction (log2)": 0.0126}
{"sequence": "HMPGMLVVYVTGAVRQPGRMVTLAAGSRVSDAIDAAGGLADDADAQALNLSARLNDGDLVHVPSALD", "soluble fraction (log2)": -0.227}
{"sequence": "HMPHILEITSSKILDELQDEKKMVYFHFEKQSNQYVYRLIFNSKNELMEFKKSLEKNSSILDVRADM", "soluble fraction (log2)": -0.354}
{"sequence": "HMPHITDAEWEVMRVVWANHHVTSKEVISILEDKMNWKATTIKTLLGRLVEKGALSTEQDGKKFIYTAR", "soluble fraction (log2)": -0.622}
{"sequence": "HMPHTDATDKQIIALILETLKDGQKHSVSEMTFPGIPREKTAQLLHQMIEEETVRIQNGVLFLPH", "soluble fraction (log2)": -0.118}
{"sequence": "HMPIDNTLLSRITSLGVSTTEAEKLISKHGEEALKANLEVVEERLSKPNLPLLDSPAAYLKTALKNG", "soluble fraction (log2)": 0.224}
{"sequence": "HMPIEQVEVPNLTNMTREEAESTLTSLNLKAQVHEEANEADEGKVFKQGTNTGEMVDEGSTIEIWVS", "soluble fraction (log2)": -0.555}
{"sequence": "HMPIHAGERLTLRLAGEGREAGQAIGYLEDGTLVIVERARHLIGQDVTVEVTRTLQTAGGRLVFAHLVE", "soluble fraction (log2)": -0.896}
{"sequence": "HMPKDLEKRAAILAAAKHLFPVHGFEGTSMDAIAALANVSKLTVYSHFKDKESLFTEAIREK", "soluble fraction (log2)": 0.163}
{"sequence": "HMPKDMAKRASILTAASKLFVQHGYGGVSMDQIAAEAGVSKLTVYSHYGDKDSLFAAAVQAH", "soluble fraction (log2)": 0.163}
{"sequence": "HMPKELAPYDILARYYLTVNNSKQSIALLEQYLDKAGSAPAALKAKLLLAGILYPSGNKERAEKLVEEVIK", "soluble fraction (log2)": -0.136}
{"sequence": "HMPKETFLNLDEEKRQAIINVLLKNFSEQHISQVKVSAIVSGIGMSRGAFYKYFEDLEDAYRFTISYFSA", "soluble fraction (log2)": -0.0967}
{"sequence": "HMPKLTKEEIQFIDNYLKNSGVEYIDTRAEVVDHVASEIESRLSANNTTNFYEEFKVYMVQHKETLLK", "soluble fraction (log2)": -0.96}
{"sequence": "HMPKLVGEVMQTLDALRREKGLSLLLVEQNARAALGVVDRVYVLERGRVVFEGSAKEAMEDQDVMEFYLG", "soluble fraction (log2)": 0.0193}
{"sequence": "HMPKRSKDEAELEFLEMLRDNQVDSTWSFGKIISQLGSTDPRYWMVDDDPLWKRQIFEKYLSNR", "soluble fraction (log2)": -1.79}
{"sequence": "HMPLDISDDSKAVLKLLKNDSNELNTVKSASGLSNKKWDKTIKELTKNKIVSVSKTEDGLYIHLI", "soluble fraction (log2)": 0.336}
{"sequence": "HMPLDYQELRNISPQAARQAILQILKANKGNVSQTARMLGITRKTVYKAMAKREAGNLDDGSRAPK", "soluble fraction (log2)": 0.265}
{"sequence": "HMPLLELPDDFYPAWKPKTIYVQGQRIMLDGVAFEAKWWTQGDNPASGQADPGSSPWRTLTQEEIAKLLE", "soluble fraction (log2)": -0.56}
{"sequence": "HMPLLKIGAQGHDVRVVQEALQRAGYAIEGVTGIFDEATREAVLAFQRDQQLTESGTVDRATWHALRR", "soluble fraction (log2)": -0.52}
{"sequence": "HMPLLSPRQLDVLSLAAGGLSDAQIAGRLVLSESTVRVHFHHIIEKLGVTDRAGAIAWYEQSRS", "soluble fraction (log2)": -0.378}
{"sequence": "HMPLNAFDVAGYRLGYGGGYFDRTLAALSPRPLAVGVGFEINRLESIRPEAHDQRLDWIVTENGAFRPA", "soluble fraction (log2)": -0.944}
